According to paper doi:10.1101/2024.02.19.580982 (bioRxiv, 2024):
Blank lines part the entries; values can stand above or below the binder they belong to.

Biological target: α-Synuclein preformed fibrils (α-Syn PFF) (mouse, UniProt O55042 1-140)
Test: ELISA

Kd: 16.4 µM
B1: ΔCARD hNOD2-Fc (Fc fusion)
chain: CKKYMAKLRTTVSAQSRFLSTYDGAETLCLEDIYTENVLEVWADVGMAGPPQKSPATLGLEELFSTPGHLNDDADTVLVVGEAGSGKSTLLQRLHLLWAAGQDFQEFLFVFPFSCRQLQCMAKPLSVRTLLFEHCCWPDVGQEDIFQLLLDHPDRVLLTFDGFDEFKFRFTDRERHCSPTDPTSVQTLLFNLLQGNLLKNARKVVTSRPAAVSAFLRKYIRTEFNLKGFSEQGIELYLRKRHHEPGVADRLIRLLQETSALHGLCHLPVFSWMVSKCHQELLLQEGGSPKTTTDMYLLILQHFLLHATPPDSASQGLGPSLLRGRLPTLLHLGRLALWGLGMCCYVFSAQQLQAAQVSPDDISLGFLVRAKGVVPGSTAPLEFLHITFQCFFAAFYLALSADVPPALLRHLFNCGRPGNSPMARLLPTMCIQASEGKDSSVAALLQKAEPHNLQITAAFLAGLLSREHWGLLAECQTSEKALLRRQACARWCLARSLRKHFHSIPPAAPGEAKSVHAMPGFIWLIRSLYEMQEERLARKAARGLNVGHLKLTFCSVGPTECAALAFVLQHLRRPVALQLDYNSVGDIGVEQLLPCLGVCKALYLRDNNISDRGICKLIECALHCEQLQKLALFNNKLTDGCAHSMAKLLACRQNFLALRLGNNYITAAGAQVLAEGLRGNTSLQFLGFWGNRVGDEGAQALAEALGDHQSLRWLSLVGNNIGSVGAQALALMLAKNVMLEELCLEENHLQDEGVCSLAEGLKKNSSLKILKLSNNCITYLGAEALLQALERNDTILEVWLRGNTFSLEEVDKLGCRDTRLLL

Kd: 0.42 µM
B2: ΔNBD hNOD2-Fc (Fc fusion)
chain: MGEEGGSASHDEEERASVLLGHSPGCEMCSQEAFQAQRSQLVELLVSGSLEGFESVLDWLLSWEVLSWEDYEGFHLLGQPLSHLARRLLDTVWNKGTWACQKLIAAAQEAQADSQSPKLHGCWDPHSLHPARDLQSHRPAIVRRLHSHVENMLDLAWERGFVSQYECDEIRLPIFTPSQRARRLLDLATVKANGLAAFLLQHVQELPVPLALPLEAATCKKYMAKLRTTVSAQSRFLSTYDGAETLCLEDIYTENVLEVWADVGMAGPPQKSPATLGLEELFSTPGHLNDDAADVPPALLRHLFNCGRPGNSPMARLLPTMCIQASEGKDSSVAALLQKAEPHNLQITAAFLAGLLSREHWGLLAECQTSEKALLRRQACARWCLARSLRKHFHSIPPAAPGEAKSVHAMPGFIWLIRSLYEMQEERLARKAARGLNVGHLKLTFCSVGPTECAALAFVLQHLRRPVALQLDYNSVGDIGVEQLLPCLGVCKALYLRDNNISDRGICKLIECALHCEQLQKLALFNNKLTDGCAHSMAKLLACRQNFLALRLGNNYITAAGAQVLAEGLRGNTSLQFLGFWGNRVGDEGAQALAEALGDHQSLRWLSLVGNNIGSVGAQALALMLAKNVMLEELCLEENHLQDEGVCSLAEGLKKNSSLKILKLSNNCITYLGAEALLQALERNDTILEVWLRGNTFSLEEVDKLGCRDTRLLL
